What was measured:
[1] = biological target: complement C1q (human) (UniProt P02745); experiment: MST; fluorescently labelled C1q (RED-NHS) 40 nM; TsCRT, TsCRT^Δ, mutants or P^TsCRT gradient-diluted; 50 mM Hepes, 150 mM NaCl, 2 mM CaCl2, 0.05% Tween 20, pH 7.4; Monolith NT.115, LED power 20%, MST power 50%
[2] = biological target: complement C1q (human) (UniProt P02745); experiment: MST; with 20 uM TsCRT^Δ P143A/E144A competitor
[3] = biological target: complement C1q (human) (UniProt P02745); experiment: MST; with 20 uM TsCRT^Δ I140A/G142A competitor
[4] = biological target: complement C1q (human) (UniProt P02745); experiment: MST; with 20 uM TsCRT^Δ H46A/K47A/D49A competitor
[5] = biological target: complement C1q (human) (UniProt P02745); experiment: MST; IgG incubated with fluorescently labelled C1q (40 nM) alone, no competitor; 50 mM Hepes, 150 mM NaCl, 2 mM CaCl2, 0.05% Tween 20, pH 7.4; LED power 60%, MST power 50%
[6] = biological target: complement C1q (human) (UniProt P02745); experiment: MST; competitive binding: IgG with fluorescently labelled C1q (40 nM) in the presence of 20 µM TsCRT^Δ, a mutant or P^TsCRT; 50 mM Hepes, 150 mM NaCl, 2 mM CaCl2, 0.05% Tween 20, pH 7.4; LED power 60%, MST power 50%

complement C1q (human), sequence (P02745 23-245, chain 1 of 3): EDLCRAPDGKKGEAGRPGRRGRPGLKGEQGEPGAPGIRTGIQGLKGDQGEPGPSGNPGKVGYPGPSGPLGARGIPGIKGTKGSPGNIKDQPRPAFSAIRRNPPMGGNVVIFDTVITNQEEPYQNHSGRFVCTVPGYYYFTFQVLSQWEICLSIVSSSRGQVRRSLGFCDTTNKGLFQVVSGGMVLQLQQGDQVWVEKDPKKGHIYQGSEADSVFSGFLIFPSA
complement C1q (human), sequence (P02746 28-253, chain 2 of 3, further chain): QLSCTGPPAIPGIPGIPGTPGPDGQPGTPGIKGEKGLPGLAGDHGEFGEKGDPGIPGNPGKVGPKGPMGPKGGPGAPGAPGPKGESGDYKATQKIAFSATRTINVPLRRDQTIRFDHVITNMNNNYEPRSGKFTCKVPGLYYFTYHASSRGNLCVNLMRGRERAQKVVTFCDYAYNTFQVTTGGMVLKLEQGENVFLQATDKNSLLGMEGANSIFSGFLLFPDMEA
complement C1q (human), sequence (P02747 29-245, chain 3 of 3, further chain): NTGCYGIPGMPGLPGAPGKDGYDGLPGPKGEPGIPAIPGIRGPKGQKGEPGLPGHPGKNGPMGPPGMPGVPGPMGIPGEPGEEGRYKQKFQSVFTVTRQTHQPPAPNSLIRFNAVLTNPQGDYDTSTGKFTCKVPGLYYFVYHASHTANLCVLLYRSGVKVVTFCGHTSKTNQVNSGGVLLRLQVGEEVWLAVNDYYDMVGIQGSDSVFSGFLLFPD

Trichinella spiralis calreticulin, full-length (natural protein)
Kd [1]: 258 µM

TsCRT^Δ mutant D129A (domain or fragment)
Kd [1]: 124 µM

TsCRT^Δ mutant H46A/K47A/D49A (domain or fragment)
Kd [1]: 54.5 µM

TsCRT^Δ mutant I140A/G142A (domain or fragment)
Kd [1]: 54.4 µM

TsCRT^Δ mutant P143A/E144A (domain or fragment)
Kd [1]: 66.8 µM

human IgG
Kd [2]: 4.18 µM
Kd [3]: 5.51 µM
Kd [4]: 3.94 µM

human IgG (antibody)
Kd [5]: 0.14 µM
KD of C1q-IgG with P^TsCRT (20 µM) [6]: 172 µM
KD of C1q-IgG with TsCRT^Δ (20 µM) [6]: 409 µM
KD of C1q-IgG with the mutant D129A [6]: 0.32 µM

truncated Trichinella spiralis calreticulin TsCRT^Δ (22-209, GSG linker, 305-364) (domain or fragment)
Kd [1]: 9.03 µM

Reference: publication PMC11059001
